Experimental data from US20060263345A1, “Butyrylcholinesterase variant polypeptides with increased catalytic efficiency and methods of use” (priority 2003, published 2006).

Experiment: microtiter isotope tracer [3H]-cocaine hydrolysis assay of immobilized butyrylcholinesterase variants
Format: biochemical
Conditions: for cocaine hydrolysis activity compared to butyrylcholinesterase (in words): compared to human butyrylcholinesterase; for increase in cocaine hydrolysis activity relative to butyrylcholinesterase: compared to human butyrylcholinesterase SEQ ID NO: 44, approximate values; for Relative Activity of butyrylcholinesterase variants (WT = 1) with enhanced cocaine hydrolase activity: relative to wild-type = 1, catalytic efficiency (Vmax/Km), [3H]-cocaine microtiter assay
Source text: At the conclusion of the isotope tracer assay, an aliquot of the reaction mix is acidified in order to take advantage of the solubility difference between the product and the substrate at pH 3.0. […] Prospect, Ill.) while [3H]-cocaine is not.
The supernatants isolated from each of the butyrylcholinesterase variant library clones contains variable butyrylcholinesterase enzyme concentrations.
At least three approaches are used to either increase the assay sensitivity or the assay signal.
Km values for (−)-cocaine are determined at 37° C. Vmax and Km values are calculated using Sigma Plot (Jandel Scientific, San Rafael, Calif.). The number of active sites of butyrylcholinesterase is determined by the method of residual activity using echothiopate iodide or diisopropyl fluorophosphates as titrants, as described previously by Masson et al., Biochemistry 36: 2266-2277 (1997). […] Purified human butyrylcholinesterase is used as the standard for the ELISA quantitation assay. The catalytic rate constant, kcat, is calculated by dividing Vmax by the concentration of active sites.

B1: F227S (protein)
chain: EDDIIIATKNGKVRGMNLTVFGGTVTAFLGIPYAQPPLGRLRFKKPQSLTKWSDIWNATKYANSCCQNIDQSFPGFHGSEMWNPNTDLSEDCLYLNVWIPAPKPKNATVLIWIYGGGFQTGTSSLHVYDGKFLARVERVIVVSMNYRVGALGFLALPGNPEAPGNMGLFDQQLALQWVQKNIAAFGGNPKSVTLFGESAGAASVSLHLLSPGSHSLFTRAILQSGSSNAPWAVTSLYEARNRTLNLAKLTGCSRENETEIIKCLRNKDPQEILLNEAFVVPYGTPLSVNFGPTVDGDFLTDMPDILLELGQFKKTQILVGVNKDEGTAFLVYGAPGFSKDNNSIITRKEFQEGLKIFFPGVSEFGKESILFHYTDWVDDQRPENYREALGDVVGDYNFICPALEFTKKFSEWGNNAFFYYFEHRSSKLPWPEWMGVMHGYEIEFVFGLPLERRDNYTKAEEILSRSIVKRWANFAKYGNPNETQNNSTSWPVFKSTEQKYLTLNTESTRIMTKLRAQQCRFWTSFFPKVLEMTGNIDEAEWEWKAGFHRWNNYMMDWKNQFNDYTSKKESCVGL
modifications: Butyrylcholinesterase variant
  cocaine hydrolysis activity compared to butyrylcholinesterase (in words): enhanced cocaine hydrolase activity
  increase in cocaine hydrolysis activity relative to butyrylcholinesterase: two
  Relative Activity of butyrylcholinesterase variants (WT = 1) with enhanced cocaine hydrolase activity: 2.3

B2: F227C (protein)
chain: EDDIIIATKNGKVRGMNLTVFGGTVTAFLGIPYAQPPLGRLRFKKPQSLTKWSDIWNATKYANSCCQNIDQSFPGFHGSEMWNPNTDLSEDCLYLNVWIPAPKPKNATVLIWIYGGGFQTGTSSLHVYDGKFLARVERVIVVSMNYRVGALGFLALPGNPEAPGNMGLFDQQLALQWVQKNIAAFGGNPKSVTLFGESAGAASVSLHLLSPGSHSLFTRAILQSGSCNAPWAVTSLYEARNRTLNLAKLTGCSRENETEIIKCLRNKDPQEILLNEAFVVPYGTPLSVNFGPTVDGDFLTDMPDILLELGQFKKTQILVGVNKDEGTAFLVYGAPGFSKDNNSIITRKEFQEGLKIFFPGVSEFGKESILFHYTDWVDDQRPENYREALGDVVGDYNFICPALEFTKKFSEWGNNAFFYYFEHRSSKLPWPEWMGVMHGYEIEFVFGLPLERRDNYTKAEEILSRSIVKRWANFAKYGNPNETQNNSTSWPVFKSTEQKYLTLNTESTRIMTKLRAQQCRFWTSFFPKVLEMTGNIDEAEWEWKAGFHRWNNYMMDWKNQFNDYTSKKESCVGL
modifications: Butyrylcholinesterase variant
  cocaine hydrolysis activity compared to butyrylcholinesterase (in words): enhanced cocaine hydrolase activity
  increase in cocaine hydrolysis activity relative to butyrylcholinesterase: two
  Relative Activity of butyrylcholinesterase variants (WT = 1) with enhanced cocaine hydrolase activity: 1.9

B3: A328W/Y332M (protein)
chain: EDDIIIATKNGKVRGMNLTVFGGTVTAFLGIPYAQPPLGRLRFKKPQSLTKWSDIWNATKYANSCCQNIDQSFPGFHGSEMWNPNTDLSEDCLYLNVWIPAPKPKNATVLIWIYGGGFQTGTSSLHVYDGKFLARVERVIVVSMNYRVGALGFLALPGNPEAPGNMGLFDQQLALQWVQKNIAAFGGNPKSVTLFGESAGAASVSLHLLSPGSHSLFTRAILQSGSFNAPWAVTSLYEARNRTLNLAKLTGCSRENETEIIKCLRNKDPQEILLNEAFVVPYGTPLSVNFGPTVDGDFLTDMPDILLELGQFKKTQILVGVNKDEGTWFLVMGAPGFSKDNNSIITRKEFQEGLKIFFPGVSEFGKESILFHYTDWVDDQRPENYREALGDVVGDYNFICPALEFTKKFSEWGNNAFFYYFEHRSSKLPWPEWMGVMHGYEIEFVFGLPLERRDNYTKAEEILSRSIVKRWANFAKYGNPNETQNNSTSWPVFKSTEQKYLTLNTESTRIMTKLRAQQCRFWTSFFPKVLEMTGNIDEAEWEWKAGFHRWNNYMMDWKNQFNDYTSKKESCVGL
modifications: Butyrylcholinesterase variant
  cocaine hydrolysis activity compared to butyrylcholinesterase (in words): enhanced cocaine hydrolase activity
  increase in cocaine hydrolysis activity relative to butyrylcholinesterase: twenty-four
  Relative Activity of butyrylcholinesterase variants (WT = 1) with enhanced cocaine hydrolase activity: 24

B4: F227T (protein)
chain: EDDIIIATKNGKVRGMNLTVFGGTVTAFLGIPYAQPPLGRLRFKKPQSLTKWSDIWNATKYANSCCQNIDQSFPGFHGSEMWNPNTDLSEDCLYLNVWIPAPKPKNATVLIWIYGGGFQTGTSSLHVYDGKFLARVERVIVVSMNYRVGALGFLALPGNPEAPGNMGLFDQQLALQWVQKNIAAFGGNPKSVTLFGESAGAASVSLHLLSPGSHSLFTRAILQSGSTNAPWAVTSLYEARNRTLNLAKLTGCSRENETEIIKCLRNKDPQEILLNEAFVVPYGTPLSVNFGPTVDGDFLTDMPDILLELGQFKKTQILVGVNKDEGTAFLVYGAPGFSKDNNSIITRKEFQEGLKIFFPGVSEFGKESILFHYTDWVDDQRPENYREALGDVVGDYNFICPALEFTKKFSEWGNNAFFYYFEHRSSKLPWPEWMGVMHGYEIEFVFGLPLERRDNYTKAEEILSRSIVKRWANFAKYGNPNETQNNSTSWPVFKSTEQKYLTLNTESTRIMTKLRAQQCRFWTSFFPKVLEMTGNIDEAEWEWKAGFHRWNNYMMDWKNQFNDYTSKKESCVGL
modifications: Butyrylcholinesterase variant
  cocaine hydrolysis activity compared to butyrylcholinesterase (in words): enhanced cocaine hydrolase activity
  increase in cocaine hydrolysis activity relative to butyrylcholinesterase: two
  Relative Activity of butyrylcholinesterase variants (WT = 1) with enhanced cocaine hydrolase activity: 1.9

B5: F227M (protein)
chain: EDDIIIATKNGKVRGMNLTVFGGTVTAFLGIPYAQPPLGRLRFKKPQSLTKWSDIWNATKYANSCCQNIDQSFPGFHGSEMWNPNTDLSEDCLYLNVWIPAPKPKNATVLIWIYGGGFQTGTSSLHVYDGKFLARVERVIVVSMNYRVGALGFLALPGNPEAPGNMGLFDQQLALQWVQKNIAAFGGNPKSVTLFGESAGAASVSLHLLSPGSHSLFTRAILQSGSMNAPWAVTSLYEARNRTLNLAKLTGCSRENETEIIKCLRNKDPQEILLNEAFVVPYGTPLSVNFGPTVDGDFLTDMPDILLELGQFKKTQILVGVNKDEGTAFLVYGAPGFSKDNNSIITRKEFQEGLKIFFPGVSEFGKESILFHYTDWVDDQRPENYREALGDVVGDYNFICPALEFTKKFSEWGNNAFFYYFEHRSSKLPWPEWMGVMHGYEIEFVFGLPLERRDNYTKAEEILSRSIVKRWANFAKYGNPNETQNNSTSWPVFKSTEQKYLTLNTESTRIMTKLRAQQCRFWTSFFPKVLEMTGNIDEAEWEWKAGFHRWNNYMMDWKNQFNDYTSKKESCVGL
modifications: Butyrylcholinesterase variant
  cocaine hydrolysis activity compared to butyrylcholinesterase (in words): enhanced cocaine hydrolase activity
  increase in cocaine hydrolysis activity relative to butyrylcholinesterase: one-and-a-half
  Relative Activity of butyrylcholinesterase variants (WT = 1) with enhanced cocaine hydrolase activity: 1.4

B6: F227P (protein)
chain: EDDIIIATKNGKVRGMNLTVFGGTVTAFLGIPYAQPPLGRLRFKKPQSLTKWSDIWNATKYANSCCQNIDQSFPGFHGSEMWNPNTDLSEDCLYLNVWIPAPKPKNATVLIWIYGGGFQTGTSSLHVYDGKFLARVERVIVVSMNYRVGALGFLALPGNPEAPGNMGLFDQQLALQWVQKNIAAFGGNPKSVTLFGESAGAASVSLHLLSPGSHSLFTRAILQSGSPNAPWAVTSLYEARNRTLNLAKLTGCSRENETEIIKCLRNKDPQEILLNEAFVVPYGTPLSVNFGPTVDGDFLTDMPDILLELGQFKKTQILVGVNKDEGTAFLVYGAPGFSKDNNSIITRKEFQEGLKIFFPGVSEFGKESILFHYTDWVDDQRPENYREALGDVVGDYNFICPALEFTKKFSEWGNNAFFYYFEHRSSKLPWPEWMGVMHGYEIEFVFGLPLERRDNYTKAEEILSRSIVKRWANFAKYGNPNETQNNSTSWPVFKSTEQKYLTLNTESTRIMTKLRAQQCRFWTSFFPKVLEMTGNIDEAEWEWKAGFHRWNNYMMDWKNQFNDYTSKKESCVGL
modifications: Butyrylcholinesterase variant
  cocaine hydrolysis activity compared to butyrylcholinesterase (in words): enhanced cocaine hydrolase activity
  increase in cocaine hydrolysis activity relative to butyrylcholinesterase: three
  Relative Activity of butyrylcholinesterase variants (WT = 1) with enhanced cocaine hydrolase activity: 2.9

B7: A199S (protein)
chain: EDDIIIATKNGKVRGMNLTVFGGTVTAFLGIPYAQPPLGRLRFKKPQSLTKWSDIWNATKYANSCCQNIDQSFPGFHGSEMWNPNTDLSEDCLYLNVWIPAPKPKNATVLIWIYGGGFQTGTSSLHVYDGKFLARVERVIVVSMNYRVGALGFLALPGNPEAPGNMGLFDQQLALQWVQKNIAAFGGNPKSVTLFGESSGAASVSLHLLSPGSHSLFTRAILQSGSFNAPWAVTSLYEARNRTLNLAKLTGCSRENETEIIKCLRNKDPQEILLNEAFVVPYGTPLSVNFGPTVDGDFLTDMPDILLELGQFKKTQILVGVNKDEGTAFLVYGAPGFSKDNNSIITRKEFQEGLKIFFPGVSEFGKESILFHYTDWVDDQRPENYREALGDVVGDYNFICPALEFTKKFSEWGNNAFFYYFEHRSSKLPWPEWMGVMHGYEIEFVFGLPLERRDNYTKAEEILSRSIVKRWANFAKYGNPNETQNNSTSWPVFKSTEQKYLTLNTESTRIMTKLRAQQCRFWTSFFPKVLEMTGNIDEAEWEWKAGFHRWNNYMMDWKNQFNDYTSKKESCVGL
modifications: Butyrylcholinesterase variant
  cocaine hydrolysis activity compared to butyrylcholinesterase (in words): enhanced cocaine hydrolase activity
  increase in cocaine hydrolysis activity relative to butyrylcholinesterase: two-and-a-half
  Relative Activity of butyrylcholinesterase variants (WT = 1) with enhanced cocaine hydrolase activity: 2.5
